± gives the uncertainty stated by the source.
Assay: self-splicing fitness, log relative to wild type (ln ratio); higher = more splicing; Tetrahymena group I intron in knt gene, E. coli kanamycin selection, DiMSum; sequences stand for … in CUCUCU…GGAGGGAAAAGUUAUCAGGCAUGCACCUGGUAGCUAGUCUUUAAACCAAUAGAUUGCAUCGGUUUAAAAGGCAAGACCGUCAAAUUGCGGGAAAGGGGUCAACAGCCGUUCAGUACCAAGUCUCAGGGGAAACUUUGAGAUGGCCUUGCAAAGGGUAUGGUAAUAAGCUGACGGACAUGGUCCUAACCACGCAGCCAAGUCCUAAGUCAACAGAUCUUCUGUUGAUAUGGAUGCAGUUCACAGACUAAAUGUCGGUCGGGGAAGAUGUAUUCUUCUCAUAAGAUAUAGUCGGACCUCUCCUUAAUGGGAGCUAGCGGAUGAAGUGAUGCAACACUGGAGCCGCUGGGAACUAAUUUGUAUGCGAAAGUAUAUUGAUUAGUUUUGGAGUACUCGUGGUCG
In short: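 DiMSum derived fitness as the error-weighted combination of fold changes across replicates, kanamycin versus no kanamycin, normalised to wild type. E. coli BL21(DE3) held the library, which randomised all eight P1ex-region intron nucleotides within the knt kanamycin-resistance gene on pET-22b(+). Six replicate transformations grew overnight at 37°C or 30°C on LB agar with or without 25 μg/mL kanamycin, also containing 100 μg/mL carbenicillin, 50 μM IPTG and 0.2% rhamnose, and pooled colonies were amplicon-sequenced on an Illumina HiSeq 2500.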

| Sequence | self-splicing fitness (ln) (30 °C) | self-splicing fitness (ln) (37 °C) |
| --- | --- | --- |
| ACAGAGCAAUAUUACGACGG | -2.78 ± 0.24 | -1.65 ± 0.27 |
| GCCAAGCAAUAUUACGCAGA | -3.13 ± 0.16 | -2.22 ± 0.15 |
| CGUCAGCAAUAUUACGAGCU | -3.17 ± 0.13 | -1.45 ± 0.13 |
| GACUAGCAAUAUUACGCCAG | -1.31 ± 0.22 |  |
| UCCGAGCAAUAUUACGCAAG | -3.27 ± 0.26 | -1.77 ± 0.32 |
| AAGGAGCAAUAUUACGAAAA | -2.9 ± 0.39 | -1.84 ± 0.35 |
| GUAAAGCAAUAUUACGUUUG | -2.28 ± 0.081 | -1.34 ± 0.094 |
| AGUCAGCAAUAUUACGAGUC | -2.45 ± 0.11 | -1.09 ± 0.11 |
| AUUAAGCAAUAUUACGAAAA | -1.27 ± 0.16 | -1.5 ± 0.18 |
| CGACAGCAAUAUUACGUGCU | -4.84 ± 0.36 | -3.46 ± 0.23 |
| CUGGAGCAAUAUUACGUCUU | -3.27 ± 0.39 |  |
| CUCCAGCAAUAUUACGACUC | -3.66 ± 0.24 | -2.24 ± 0.38 |
| ACCCAGCAAUAUUACGGCCU | -0.518 ± 0.052 | 0.0547 ± 0.067 |
| UAGCAGCAAUAUUACGACCU | -0.287 ± 0.13 | 0.328 ± 0.13 |
| GUGCAGCAAUAUUACGAGAA |  | -2.25 ± 0.3 |
| GCUGAGCAAUAUUACGUUUU | -4.08 ± 0.26 | -3.21 ± 0.22 |
| GACCAGCAAUAUUACGCAGG | -3.82 ± 0.21 | -2.49 ± 0.13 |
| UGUUAGCAAUAUUACGUUUU | -3.9 ± 0.33 | -2.19 ± 0.24 |
| GGGAAGCAAUAUUACGUGUA | -1.96 ± 0.14 | -0.669 ± 0.11 |
| GUACAGCAAUAUUACGUAUA | -1.77 ± 0.11 | -1 ± 0.12 |
| GAAUAGCAAUAUUACGACCG | -1.03 ± 0.16 | -0.447 ± 0.2 |
| GGUUAGCAAUAUUACGAUAG | -1.82 ± 0.28 | -1.14 ± 0.32 |
| AGAGAGCAAUAUUACGCGUU | -2.09 ± 0.4 |  |
| UUGAAGCAAUAUUACGAUGA | 0.15 ± 0.075 | 0.161 ± 0.099 |
| UUCCAGCAAUAUUACGAGCG | -1.6 ± 0.096 | -1.26 ± 0.1 |

| Sequence | self-splicing fitness (ln) (30 °C) | self-splicing fitness (ln) (37 °C) |
| --- | --- | --- |
| CCGGAGCAAUAUUACGAACU | -2.29 ± 0.31 | -0.657 ± 0.28 |
| GAAUAGCAAUAUUACGCAAG | -2.44 ± 0.17 | -1.54 ± 0.15 |
| GUUGAGCAAUAUUACGCCGU | -2.98 ± 0.23 | -0.768 ± 0.16 |
| CCGCAGCAAUAUUACGUGCU | -2.05 ± 0.27 |  |
| GUAUAGCAAUAUUACGUGAG | -1.85 ± 0.13 | -1.42 ± 0.17 |
| CGUUAGCAAUAUUACGGAAU |  | -2.07 ± 0.36 |
| UGACAGCAAUAUUACGACAU | -1.209 ± 0.012 | -0.373 ± 0.032 |
| AUCUAGCAAUAUUACGAUGA | -1.03 ± 0.091 | -0.237 ± 0.091 |
| GUUUAGCAAUAUUACGAUUU | -0.709 ± 0.068 | 0.111 ± 0.096 |
| GUACAGCAAUAUUACGACCC | -0.186 ± 0.36 | 0.979 ± 0.36 |
| AUAUAGCAAUAUUACGCCCU | -0.155 ± 0.15 | 0.32 ± 0.18 |
| CCUAAGCAAUAUUACGUGAC | -4.32 ± 0.3 |  |
| GUCUAGCAAUAUUACGGAGC | -1.04 ± 0.15 | -1.02 ± 0.18 |
| CUUAAGCAAUAUUACGCUAG | -3.35 ± 0.25 | -0.439 ± 0.19 |
| CCAGAGCAAUAUUACGAUAC | -2.7 ± 0.2 | -1.71 ± 0.21 |
| ACGAAGCAAUAUUACGUCAG | -3.43 ± 0.19 | -1.1 ± 0.12 |
| UCCGAGCAAUAUUACGCGUC | -3.74 ± 0.37 | -1.53 ± 0.26 |
| CCUUAGCAAUAUUACGAGCA | -2.64 ± 0.22 | -3.17 ± 0.33 |
| GCGGAGCAAUAUUACGACGU | -4.57 ± 0.46 | -2.5 ± 0.3 |
| AUACAGCAAUAUUACGUCCC | -0.874 ± 0.14 | -0.261 ± 0.18 |
| GUUGAGCAAUAUUACGGGCG | -2.38 ± 0.18 | -1.58 ± 0.25 |
| GGGCAGCAAUAUUACGCCAA | -0.582 ± 0.19 | -0.176 ± 0.24 |
| ACCCAGCAAUAUUACGGAAU | -0.884 ± 0.054 | -0.0542 ± 0.07 |
| UAACAGCAAUAUUACGAUGG | -1.82 ± 0.087 | -0.665 ± 0.1 |
| AGCUAGCAAUAUUACGUUGU | -2.56 ± 0.17 | -2.32 ± 0.22 |
